Legend:
[1] = molecular target: monkey MSLN full-length protein expressed on HEK293T cells (HEK293T-monkey MSLN) (monkey); assay: FACS on HEK293T-monkey MSLN cells
[2] = molecular target: human MSLN on OVCAR3 tumor cells (human) (UniProt Q13421); assay: FACS, OVCAR3 cells
human MSLN on OVCAR3 tumor cells (human), sequence (Q13421 other isoform, or with tags, fused parts or gaps): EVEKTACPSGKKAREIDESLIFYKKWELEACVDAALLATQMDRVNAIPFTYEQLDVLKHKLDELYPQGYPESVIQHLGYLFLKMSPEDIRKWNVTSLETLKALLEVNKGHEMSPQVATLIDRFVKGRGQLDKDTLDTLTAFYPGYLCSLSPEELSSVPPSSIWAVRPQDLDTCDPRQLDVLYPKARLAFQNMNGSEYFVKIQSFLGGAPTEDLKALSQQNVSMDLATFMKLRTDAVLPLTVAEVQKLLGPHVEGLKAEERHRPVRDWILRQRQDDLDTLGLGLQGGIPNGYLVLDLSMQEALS

Row | Maximum mean fluorescence intensity [1] | EC50 [1] | Maximum MFI [2] | Binder
1 | 348 |  |  | S009-F8-9.16 (antibody, human IgG1, kappa, V domains shown) VH: EVHLQQSGPVLVKPGASVKMSCKASGYTFTDYFMNWVKQSHGKSLEWIGVINPHNGYVNYNQKFQGRATLTVDKSSSTVYMELNSLTSEDSAVYHCARSAESAWFAYWGQRTLVTVSA VL: DVLMTQTPLSLPVSLGDQVSISCRSSQSIVHVKGNTYLEWYLQKPGQSPELLIYKVSNRFSGVPDRFSGGGSGTDFTLKISRVEPEDLGVYYCFQGSHLPYTFGGGTKLEIKR
2 | 3390 |  |  | S009-F8-31.22 (antibody, human IgG1, kappa, V domains shown) VH: EVQLVESGGDLVKPGGSLKLSCAASGFTFSTYGMSWVRQTPDKRLEWVATISSGGSYTYYPDSLKGRFTISRDNAKNTLYLQMSSLKSEDTAMYYCARHEGYYYGKDYWGQGTTLTVSS VL: DIVLTQSPATLSVTPGDSVSLSCRASHSISNNLHWYQQKSHESPRLLIKYASQSISGIPSKFSGSGSGTDFTLSINSVETEDFGMYFCQQTNSWPLTFGAGTKLELKR
3 | 106000 | 0.64 nM |  | S009-F8-33.12 (antibody, human IgG1, kappa, V domains shown) VH: EVQLQQSGAELVKPGASVKLSCTASAFNIKDYYMHWVKQRTEQGLEWIGRIDPEDGETKYAPKFQGKATITADTSSNTAYLQLSSLTSEDTAVYYCASGSGTGAMDYWGQGTSVTVSS VL: DIVMTQSQKFMSTSVGDRVSITCKASQNVRTAVGWYQQKPGQSPKALIYLASNRHTGVPDRFTGSGSGTDFTLTISNVQSEDLADYFCLQHWNSPYTFGGGTKLVIKR
4 |  |  | 471 MFI | F3.80.22-H1 (scFv, not shown: small tags and cut ends) scFv: DIVMTQTPLSLPVTPGEPASISCRSSQSLEHNNGNTYLHWFLQKPGQSPQLLIYKVSNRFSGVPDRFSGSGSGTDFTLKISRVEAEDVGVYYCSQSTHVPFTFGQGTKLEIKGGGGSGGGGSGGGGSEVQLVQSGAEVKKPGATVKISCKVSGYTFTDYEIHWVQQAPGKGLEWMGAFDPEIGGSAYNQKFKDRVTITADKSTDTAYMELSSLRSEDTAVYYCTDYYGSSSGYFDVWGQGTTVTVSS
5 |  |  | 512 MFI | F3.80.22-H2 (scFv, not shown: small tags and cut ends) scFv: DIVMTQTPLSLPVTPGEPASISCRSSQSLEHNNGNTYLHWFLQKPGQSPQLLIYKVSNRFSGVPDRFSGSGSGTDFTLKISRVEAEDVGVYYCSQSTHVPFTFGQGTKLEIKGGGGSGGGGSGGGGSEVQLVQSGAEVKKPGATVKISCKASGYTFTDYEIHWVQQAPGKGLEWMGAFDPEIGGSAYNQKFKDRVTITADKSTSTAYMELSSLRSEDTAVYYCTDYYGSSSGYFDVWGQGTTVTVSS
6 |  |  | 502 MFI | F3.80.22-H3 (scFv, not shown: small tags and cut ends) scFv: DIVMTQTPLSLPVTPGEPASISCRSSQSLEHNNGNTYLHWFLQKPGQSPQLLIYKVSNRFSGVPDRFSGSGSGTDFTLKISRVEAEDVGVYYCSQSTHVPFTFGQGTKLEIKGGGGSGGGGSGGGGSEVQLVQSGAEVKKPGATVKISCKASGYTFTDYEIHWVQQAPGKGLEWMGAFDPEIGGSAYNQKFKDRVTITADKSTSTAYMELSSLRSEDTAVYYCTDYYGSSSGYFDVWGTGTTVTVSS
7 | 21500 | 0.08 nM |  | S009-F8-12.13 (antibody, human IgG1, kappa, V domains shown) VH: QVQLQQPGAELVKPGASVKLSCKASGYTFTSYWMHWVKQRPGQGLEWIGMIHPNSGSTNYNEKFKSKATLTVDKSSSTAYMQLSSLTSEDSAVYYCARRTPIITLVGHWYFDVWGTGTTVTVSS VL: DIVMTQSHKFMSTSVGDRVSITCKASQDVGTAVAWYQQKPGQSPKLLIYWASTRHTGVPDRFTGSGSGTDFTLTISNVQSEDLADYFCQQYSSYPLTFGAGTKLELKR
8 | 28200 | 0.39 nM |  | S009-F8-15.19 (antibody, human IgG1, kappa, V domains shown) VH: EFQLQQSGPELVKPGASVKISCKASGYSFTDYNMNWVKQSNGKSLEWIGIINPYYGTTSNNQNFKGKATLTVDQSSSTAYMQLNSLTSDDSAVYYCARWLRRDAMDYWGQGTSVTVSS VL: DIVMTPSHKFMSTSVGDRVSIACKASQDVGSSVAWYQQKPGQSPKLLIYWTSTRHTGVPDRFTGSGSGTDFTLTISNVQSEDLADYFCQQYSSYPWTFGGGTKLEIKR
9 | 31300 | 2.05 nM |  | S009-F8-27.1 (antibody, human IgG1, kappa, V domains shown) VH: EVQLVESGGGLVKPGGSLKLSCAASGFTFSSYAMSWVRQTPEKRLEWVATISDGGNYTYYPDNVKGRFTISRDNAKNNLYLQMSHLKSEDTAMYYCAGDRGYPYAMDSWGQGTSVTVSS VL: NIMMTQSPSSLAVSAGEKVTMSCKSSQSVLYSSNQKNYLAWYQQKPGQSPKLLIYWASTRESGVPDRFTGSGSGTDFTLTISNVHAEDLAVYYCHQYLSSLTFGAGTKLELKR
10 | 173 |  |  | S009-F8-36.12 (antibody, human IgG1, kappa, V domains shown) VH: EVQLQQSGPELVKPGASVKISCKASGYTFTDYYMNWVKQSHGKSLEWIGDINPNNGGTSYNQKFKGKATLTVDKSSSTAYMELRSLTSEDSAVYYCASWGYGSSSRGYFDYWGQGTTLTVSS VL: QIVLSQSPAILSASPGEKVTMTCRASSSVSYMHWYQQKPGSSPKPWIYATSNLASGVPARFSGSGSGTSYSLTISRVEAEDAATYYCQQWSSNPWTFGGGTKLEIKR
11 | 114000 | 1.09 nM |  | S009-F8-22.23 (antibody, human IgG1, kappa, V domains shown) VH: QVQLKQSGPGLVQPSQSLSITCTVSGFSLFSYGVHWVRQSPGKGLEWLGVIWSGGSTDYNAAFISRLSISKDNSKSQVFFKMNSLQADDTAMYYCARNGGSMITTLYYAMDYWGQGTSVTVSS VL: DVVMTQTPLSLPVSLGDQASISCRSSQSLVHSYGNTYLHWYLQKPGQSPKLLIYKVSNRFSGVPDRFSGSGSGTDFTLKISRVEAEDLGVYFCSQSTHIPFTFGGGTKLEIKR
12 | 112000 | 0.69 nM |  | S009-F8-32.3 (antibody, human IgG1, kappa, V domains shown) VH: QVQLKESGPGLVAPSQSLSITCTVSGFSLSSYAISWVRQPPGKGLEWLGVIWTGGGTNYNSALKSRLSISKDNSKSQVFLKMNSLQTDDTARFYCARNNYGRLDYAMDYWGQGTSVTVSS VL: DVVMTQTPLSLPVSLGDQASISCRSSQSLVHGNGNTYLHWYLQKPGQSPKLLIYKVSNRFSGVPDRFSGSGSGTDFTLKISRVETEDLGVYFCSQSTHVPFTFGSGTKLEIKR
13 | 24900 | 0.81 nM |  | S009-F8-18.9 (antibody, human IgG1, kappa, V domains shown) VH: EFQLQQSGPELVKPGASVKISCKASGYSFTDYNMNWVKQSNGKSLEWIGIINPNYGTTSYNQKFKGRATLTVDQSSSTAYVQLNSLTSEDSAVYYCARGGYDNEAMDYWGQGTSVTVSS VL: QIVLTQSPAIMSASPGEKVTMTCSASSSVSYMHWYQQKSGTSPKRWIYDTSKLASGVPARFSGSGSGTSYSLTISSMEAEDAATYYCQQWSSNPPTFGAGTKLELKR
14 | 24900 | 0.3 nM |  | S009-F8-19.21 (antibody, human IgG1, kappa, V domains shown) VH: EFQLQQSGPELVKPGASVKISCKTSGYSFTDYNMNWVKQSNGKSLEWIGVINPNYGTTGYNQKFKGKATLTVDQSSSTAYMQLNSLTSEDSAVYYCARGGYDGEAMDYWGHGTSVTVSS VL: QIVLTQSPAIMSASPGEKVTMTCSASSSVNYMHWYQQKSGTSPKRWIYDTSKLASGVPARFSGSGSGTSYSLTISSMEAEDAATYYCQQWSSYPPTFGGGTKLEIKR
15 | 35000 | 0.64 nM |  | S009-F8-4.5 (antibody, human IgG1, kappa, V domains shown) VH: QVQLQQPGAELVKPGASVKLSCKASGYTFTIYWMHWVKQRPGQGLEWIGMIHPNSGNTNYNEKFKSKATLTVDKSSSTAYMQLSSLTSEDSAVYYCSLIHWYFDVWGTGTTVTVSS VL: QIVLTQSPAIMSASPGEKVTMTCSASSSVSYMYWYQQKPGSSPRLLIYDTSNLASGVPVRFSGSGSGTSYSLTISRMEAEDAATYYCQQWSSYPLTFGAGTKLELKR
16 | 20500 | 0.15 nM |  | S009-F8-13.8 (antibody, human IgG1, kappa, V domains shown) VH: EFQLQQSGPELVKPGASVKISCKASGYSFTDYNMNWVKQTNGKSLEWIGIINPNYGTSSYNQKFKGKATLTVDQSSSTAYMQLNSLTSEDSAVYYCARVGRDNSGFDYWGQGTTLTVSS VL: QIVLTQSPAIMSASPGEKVTMTCSASSSVSYMYWYQQKPGSSPRLLIYDTSNLASGVPVRFSGSGSGTSYSLTISRMEAEDAATYYCQQWSSYPPTFGSGTELEIKR
17 | 80 |  |  | S009-F8-29.1 (antibody, human IgG1, kappa, V domains shown) VH: QVQLQQSGAELARPGASVKMSCKASGYTFISYTMHWVKQRPGQGLEWIGYINPSSGYTKYNQKFKDKATLTADKSSSTAYMQLNSLTSEDSAVYYCARYYSNPDYYAMDYWGQGTSVTVSS VL: QIVLTQSPAIMSASPGEKVTITCSASSSVSYMHWFQQKPGTSPKLWIYSTSNLASGVPARFSGSGSGTSYSLTISRMEAEDAATYYCQQRSSYPLTFGGGTKLELKR
18 | 20200 | 0.18 nM |  | S009-F8-5.15 (antibody, human IgG1, kappa, V domains shown) VH: QVQLQQPGTELVKPGASVKLSCKASGYTFTSYWMHWVKQRPGQGLEWIGHSNPSNGGTNYNEKFKSKATLTVDKSSSTAYMQLSSLTSEDSAVYYCARWVRGSNYEYFDVWGTGTTVTVSS VL: DIVMTQSQKFMSTTVGDRVSIICKASQNVGSAVAWCQQKPGQSPKLLIYSASNRYTGVPDRFTGSGSGTDFTLTISNMQSEDLADYFCQQYSSYPLTFAGGTKLEIKR
19 | 112000 | 0.36 nM |  | S009-F8-8.22 (antibody, human IgG1, kappa, V domains shown) VH: EVQLQQSGPELVKPGASVKMSCKASGYTFTDYIIHWVKQSHGKSLEWIAYIFPNNGGTGYNQKFRGKATLTVNKSSSTAYMELRSLTSEDSAVYYCARWRLRQYFDVWGTGTTVTVSS VL: DIVMTQSQKFMSTIVGDRVSITCKASQNVGTAVAWYQQKPGQSPKLLIYSASNRYTGVPDRFTGSGSGTDFTLTISNMQSEDLADYFCQQYSSYPLTFGGGTKLEIKR
20 | 105000 | 0.52 nM |  | S009-F8-24.14 (antibody, human IgG1, kappa, V domains shown) VH: EFQLQQSGPELVKPGASVKISCKASGYSFTDYNMNWVKLSNGKSLEWIGVIIPNYGTSSYNQKFKGKATLTVDQSSSTAYMQLNSLTSEDSAVYYCARWDNYYGSSLDYWGQGTTLTVSS VL: DIVMTQSQKFMSTTVGDRVSITCKASQNVGTAVAWYQQKPGQSPKLLIYSASNRYTGVPDRFTGSGSGTDFILTISNMQSEDLADYFCQQYSSYPLTFGAGTKLELKR
